# Data from patent CN113817050A (WUHAN INST OF BIOLOGICAL PRODUCTS CO LTD, dated 2021).
# B1: 抗SARS-CoV-2的单克隆抗体1H8 (antibody, V domains shown)
# VH: EVQLVESGGGLVQPGGSLRLSCAASEITVSSNYMNWVRQAPGKGLEWVSVIYSGGTTYYADSVKGRFTISRDNSENTLYLQMNSLRAEDTAVYYCARDLMEVGGMDVWGQGTTVTVSS
# VL: DIVMTQSPSSLSASVGDRVTITCRASQGVSNYLAWYQQKPGKVPKLLIYAASTLQSGVPSRFSGSRSGTDFTLTISSLQPEDVATYYCQNYNSAPFAFGPGTKVEIK
# notes: also called 人源抗SARS-CoV-2抗体1H8; 1H8抗体
# What was measured:
# [1] = biological target: SARS-CoV-2刺突S1亚基蛋白(Sino公司，货号:40591-V02H) (SARS-CoV-2 (2019-nCoV), UniProt P0DTC2 16-685)
# [2] = biological target: SARS-CoV-2 RBD结构域重组蛋白(Sino公司，货号40592-V05H) (SARS-CoV-2 (2019-nCoV), UniProt P0DTC2 319-541)
# [3] = biological target: T1, SARS-CoV-2刺突S1-His重组蛋白(Sino公司，货号:40591-V08H) (SARS-CoV-2 (2019-nCoV), UniProt P0DTC2 16-685); assay: ELISA, S1-His coated at 1.0 μg/mL, detection by goat anti-human IgG-HRP
# T1 construct: domain: S1; also called S1蛋白; 刺突蛋白S1
binder,measurement,setting,value
B1,IC50,[1],5.76 nM
same,EC50,[2],0.035 nM
same,IC50,[2],3.6 nM
same,EC50,[3],0.054 nM
